Biological target: the molecule itself
Assay: SEC; Superdex 200 GL 10/300; 20 mM HEPES-NaOH (pH 6.1), 100 mM NaCl, 1 mM DDM; BSA monomer, dimer and tetramer as standards; MgtE in DDM micelles

B1: full-length MgtE from Thermus thermophilus (natural protein, UniProt Q5SMG8 1-450, looked up)
chain: MEEKLAVSLQEALQEGDTRALREVLEEIHPQDLLALWDELKGEHRYVVLTLLPKAKAAEVLSHLSPEEQAEYLKTLPPWRLREILEELSLDDLADALQAVRKEDPAYFQRLKDLLDPRTRAEVEALARYEEDEAGGLMTPEYVAVREGMTVEEVLRFLRRAAPDAETIYYIYVVDEKGRLKGVLSLRDLIVADPRTRVAEIMNPKVVYVRTDTDQEEVARLMADYDFTVLPVVDEEGRLVGIVTVDDVLDVLEAEATEDIHKLGAVDVPDLVYSEAGPVALWLARVRWLVILILTGMVTSSILQGFESVLEAVTALAFYVPVLLGTGGNTGNQSATLIIRALATRDLDLRDWRRVFLKEMGVGLLLGLTLSFLLVGKVYWDGHPLLLPVVGVSLVLIVFFANLVGAMLPFLLRRLGVDPALVSNPLVATLSDVTGLLIYLSVARLLLEAV
notes: MgtE, Mg2+ channel of Thermus thermophilus, full length (residues 1-450: cytoplasmic region 1-263, transmembrane region 264-450); plasmid with N-terminal His x 6 tag and HRV-3C protease recognition site; Dimer in DDM micelles by SEC; theoretical M.W. 50 kDa a subunit; The construct is described in Hattori et al., 2007a; also called wild-type MgtE; WT; source: E. coli C41 (DE3), solubilized in …
- stoichiometry N: 2

Reference: paper PMC5882242, “Functional roles of Mg^2+ binding sites in ion-dependent gating of a Mg^2+ channel, MgtE, revealed by solution NMR” (eLife, 2018)
